Assays:
Test in all cases: holdup assay
Parameters in all cases: key: below the threshold = too weak to quantify, mostly under pKd 3.1 to 4
APBA2_1, Q99767 = molecular target: T1, APBA2_1, Q99767
T1 sequence (Q99767 563-664, limits assumed, looked up): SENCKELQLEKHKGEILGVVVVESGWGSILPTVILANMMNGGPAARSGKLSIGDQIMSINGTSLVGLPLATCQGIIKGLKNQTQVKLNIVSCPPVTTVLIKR

ARHGAP21, Q5T5U3 = molecular target: T2, ARHGAP21, Q5T5U3
T2 sequence (Q5T5U3 45-169, limits assumed, looked up): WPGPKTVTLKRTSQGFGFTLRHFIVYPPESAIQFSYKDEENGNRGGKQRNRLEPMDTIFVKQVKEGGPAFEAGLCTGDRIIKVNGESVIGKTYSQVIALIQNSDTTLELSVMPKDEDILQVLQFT

PARD3B_1, Q8TEW8 = molecular target: T3, PARD3B_1, Q8TEW8
T3 sequence (Q8TEW8 196-299, limits assumed, looked up): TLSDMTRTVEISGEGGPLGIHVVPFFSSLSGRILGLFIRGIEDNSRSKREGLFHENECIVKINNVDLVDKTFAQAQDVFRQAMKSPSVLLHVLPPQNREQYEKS

DLG5_1, Q8TDM6 = molecular target: DLG5_1, Q8TDM6
MPDZ_10, O75970 = molecular target: T4, MPDZ_10, O75970; conditions: plain residues with an end cap or a label only (N-terminal biotin on a linker: ttds)
T4 sequence (O75970 1624-1722, limits assumed, looked up): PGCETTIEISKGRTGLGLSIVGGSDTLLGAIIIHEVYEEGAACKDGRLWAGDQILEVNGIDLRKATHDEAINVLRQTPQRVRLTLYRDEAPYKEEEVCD

GRID2IP_1, A4D2P6 = molecular target: GRID2IP_1, A4D2P6
MPDZ_12, O75970 = molecular target: T5, MPDZ_12, O75970
T5 sequence (O75970 1857-1958, limits assumed, looked up): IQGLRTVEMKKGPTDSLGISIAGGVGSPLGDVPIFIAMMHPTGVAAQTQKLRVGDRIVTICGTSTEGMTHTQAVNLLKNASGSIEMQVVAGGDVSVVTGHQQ

LNX1_1, Q8TBB1 = molecular target: LNX1_1, Q8TBB1
GRASP, Q7Z6J2 = molecular target: GRASP, Q7Z6J2
GOPC, Q9HD26 = molecular target: GOPC, Q9HD26
RADIL, Q96JH8 = molecular target: T6, RADIL, Q96JH8
T6 sequence (Q96JH8 971-1071, limits assumed, looked up): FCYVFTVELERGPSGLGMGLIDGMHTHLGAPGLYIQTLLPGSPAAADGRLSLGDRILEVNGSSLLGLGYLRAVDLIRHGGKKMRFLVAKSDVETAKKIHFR

MAGI2_4, Q86UL8 = molecular target: MAGI2_4, Q86UL8
FRMPD2_2, Q68DX3 = molecular target: FRMPD2_2, Q68DX3
MAGI3_2, Q5TCQ9 = molecular target: MAGI3_2, Q5TCQ9
AHNAK1, Q09666 = molecular target: AHNAK1, Q09666
NHERF4_1, Q86UT5-2 = molecular target: NHERF4_1, Q86UT5-2
NHERF4_2, Q86UT5 = molecular target: NHERF4_2, Q86UT5
RAPGEF6, Q8TEU7 = molecular target: T7, RAPGEF6, Q8TEU7
T7 sequence (Q8TEU7 525-625, limits assumed, looked up): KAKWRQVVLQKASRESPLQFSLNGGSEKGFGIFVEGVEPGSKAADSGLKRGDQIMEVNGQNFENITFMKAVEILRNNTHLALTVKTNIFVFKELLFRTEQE

IL16_1, Q14005 = molecular target: IL16_1, Q14005
APBA1_1, Q02410 = molecular target: T8, APBA1_1, Q02410
T8 sequence (Q02410 651-752, limits assumed, looked up): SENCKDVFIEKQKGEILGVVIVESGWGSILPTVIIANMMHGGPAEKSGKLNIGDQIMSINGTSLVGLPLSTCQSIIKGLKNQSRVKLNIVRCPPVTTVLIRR

LAP2, Q96RT1 = molecular target: LAP2, Q96RT1
SHANK1, Q9Y566 = molecular target: T9, SHANK1, Q9Y566
T9 sequence (Q9Y566 658-767, limits assumed, looked up): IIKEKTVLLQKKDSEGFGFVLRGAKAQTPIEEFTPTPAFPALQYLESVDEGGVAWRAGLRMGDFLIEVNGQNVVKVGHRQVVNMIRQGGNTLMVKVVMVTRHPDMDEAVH

MPDZ_5, O75970 = molecular target: T10, MPDZ_5, O75970
T10 sequence (O75970 695-796, limits assumed, looked up): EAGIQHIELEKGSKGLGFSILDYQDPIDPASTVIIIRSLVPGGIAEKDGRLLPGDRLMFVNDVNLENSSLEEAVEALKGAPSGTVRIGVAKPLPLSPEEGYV

SCRIB_1, Q14160 = molecular target: SCRIB_1, Q14160
DLG1_3, Q12959 = molecular target: DLG1_3, Q12959
Inadl_9, Q8NI35 = molecular target: Inadl_9, Q8NI35
[1] = plain residues with an end cap or a label only (N-terminal biotin on a linker: ttds)
[2] = plain residues with an end cap or a label only (N-terminal biotin on a linker: ahx)

Sequence of GRID2IP_1, A4D2P6 (A4D2P6 1-87): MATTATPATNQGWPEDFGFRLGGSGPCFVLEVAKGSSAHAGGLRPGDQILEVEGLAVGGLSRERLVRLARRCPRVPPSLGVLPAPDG
Sequence of DLG5_1, Q8TDM6 (Q8TDM6 617-713): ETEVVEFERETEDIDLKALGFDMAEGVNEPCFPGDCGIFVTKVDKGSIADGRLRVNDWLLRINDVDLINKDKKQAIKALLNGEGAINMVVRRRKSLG
Sequence of IL16_1, Q14005 (Q14005 210-306): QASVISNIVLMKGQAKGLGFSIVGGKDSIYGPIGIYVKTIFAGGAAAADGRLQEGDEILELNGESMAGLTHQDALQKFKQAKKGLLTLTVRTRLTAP
Sequence of MAGI3_2, Q5TCQ9 (Q5TCQ9 398-503): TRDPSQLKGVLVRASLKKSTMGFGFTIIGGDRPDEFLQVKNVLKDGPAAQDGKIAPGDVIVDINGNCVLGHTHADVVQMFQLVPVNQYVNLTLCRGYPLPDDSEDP
Sequence of LNX1_1, Q8TBB1 (Q8TBB1 261-371): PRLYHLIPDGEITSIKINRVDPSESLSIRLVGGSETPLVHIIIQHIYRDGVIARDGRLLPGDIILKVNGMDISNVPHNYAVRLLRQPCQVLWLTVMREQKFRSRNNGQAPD
Sequence of FRMPD2_2, Q68DX3 (Q68DX3 944-1038): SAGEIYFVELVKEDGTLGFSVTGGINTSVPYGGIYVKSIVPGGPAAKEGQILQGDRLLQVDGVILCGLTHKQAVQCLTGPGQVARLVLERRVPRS
Sequence of LAP2, Q96RT1 (Q96RT1 other isoform, or with tags, fused parts or gaps): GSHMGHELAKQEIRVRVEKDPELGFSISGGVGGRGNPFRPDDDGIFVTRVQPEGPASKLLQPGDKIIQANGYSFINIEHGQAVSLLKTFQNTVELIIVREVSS
Sequence of NHERF4_2, Q86UT5 (Q86UT5 220-308): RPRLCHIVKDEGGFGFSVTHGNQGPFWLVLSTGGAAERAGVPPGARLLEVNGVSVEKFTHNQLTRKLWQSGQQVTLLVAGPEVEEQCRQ
Sequence of NHERF4_1, Q86UT5-2 (Q86UT5 other isoform, or with tags, fused parts or gaps): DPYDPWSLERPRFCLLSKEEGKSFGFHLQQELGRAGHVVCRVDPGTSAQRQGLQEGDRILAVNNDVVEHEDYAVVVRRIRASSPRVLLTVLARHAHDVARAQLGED
Sequence of MAGI2_4, Q86UL8 (Q86UL8 772-865): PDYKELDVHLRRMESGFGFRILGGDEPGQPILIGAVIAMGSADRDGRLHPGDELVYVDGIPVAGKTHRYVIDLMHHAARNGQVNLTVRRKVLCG
Sequence of GRASP, Q7Z6J2 (Q7Z6J2 96-193): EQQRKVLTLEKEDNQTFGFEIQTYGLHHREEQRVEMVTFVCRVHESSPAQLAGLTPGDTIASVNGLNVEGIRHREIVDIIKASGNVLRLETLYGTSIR
Sequence of SCRIB_1, Q14160 (Q14160 718-814): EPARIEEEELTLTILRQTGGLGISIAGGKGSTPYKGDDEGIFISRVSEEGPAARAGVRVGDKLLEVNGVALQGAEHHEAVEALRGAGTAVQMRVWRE
Sequence of Inadl_9, Q8NI35 (Q8NI35 1530-1615): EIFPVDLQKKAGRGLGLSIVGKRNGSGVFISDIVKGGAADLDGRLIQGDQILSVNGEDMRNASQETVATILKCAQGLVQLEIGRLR
Sequence of DLG1_3, Q12959 (Q12959 457-571): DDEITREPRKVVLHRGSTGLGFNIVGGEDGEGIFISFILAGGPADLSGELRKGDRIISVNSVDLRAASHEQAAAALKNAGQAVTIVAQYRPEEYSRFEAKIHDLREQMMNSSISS

## EMDRRPATVV [PLCB4, Q15147]
APBA2_1, Q99767; [1]
  pKd: below the threshold
ARHGAP21, Q5T5U3; [1]
  pKd: 3.64
PARD3B_1, Q8TEW8; [1]
  pKd: 3.68
DLG5_1, Q8TDM6; [1]
  pKd: below the threshold
MPDZ_10, O75970
  pKd: 3.7
GRID2IP_1, A4D2P6; [1]
  pKd: below the threshold
MPDZ_12, O75970; [1]
  pKd: below the threshold
LNX1_1, Q8TBB1; [1]
  pKd: 4.01
GRASP, Q7Z6J2; [1]
  pKd: 4.01
GOPC, Q9HD26; [1]
  pKd: 4.04
RADIL, Q96JH8; [1]
  pKd: 3.99
MAGI2_4, Q86UL8; [1]
  pKd: 3.77
FRMPD2_2, Q68DX3; [1]
  pKd: 3.78
MAGI3_2, Q5TCQ9; [1]
  pKd: 4.65
AHNAK1, Q09666; [1]
  pKd: below the threshold
NHERF4_1, Q86UT5-2; [1]
  pKd: below the threshold
NHERF4_2, Q86UT5; [1]
  pKd: below the threshold
RAPGEF6, Q8TEU7; [1]
  pKd: below the threshold
IL16_1, Q14005; [1]
  pKd: below the threshold
APBA1_1, Q02410; [1]
  pKd: below the threshold
LAP2, Q96RT1; [1]
  pKd: below the threshold
SHANK1, Q9Y566; [1]
  pKd: below the threshold
MPDZ_5, O75970; [1]
  pKd: 3.66
SCRIB_1, Q14160; [1]
  pKd: 3.84

## PSASCAVTAA [PDLIM4, P50479;P50479-2]
APBA2_1, Q99767; [2]
  pKd: below the threshold
ARHGAP21, Q5T5U3; [2]
  pKd: below the threshold
PARD3B_1, Q8TEW8; [2]
  pKd: below the threshold
DLG5_1, Q8TDM6; [2]
  pKd: below the threshold
GRID2IP_1, A4D2P6; [2]
  pKd: below the threshold
MPDZ_12, O75970; [2]
  pKd: below the threshold
LNX1_1, Q8TBB1; [2]
  pKd: below the threshold
DLG1_3, Q12959; [2]
  pKd: below the threshold
GRASP, Q7Z6J2; [2]
  pKd: below the threshold
Inadl_9, Q8NI35; [2]
  pKd: below the threshold
GOPC, Q9HD26; [2]
  pKd: below the threshold
RADIL, Q96JH8; [2]
  pKd: below the threshold
MAGI2_4, Q86UL8; [2]
  pKd: below the threshold
FRMPD2_2, Q68DX3; [2]
  pKd: below the threshold
MAGI3_2, Q5TCQ9; [2]
  pKd: below the threshold
AHNAK1, Q09666; [2]
  pKd: below the threshold
NHERF4_1, Q86UT5-2; [2]
  pKd: below the threshold
NHERF4_2, Q86UT5; [2]
  pKd: below the threshold
RAPGEF6, Q8TEU7; [2]
  pKd: below the threshold
IL16_1, Q14005; [2]
  pKd: below the threshold
APBA1_1, Q02410; [2]
  pKd: below the threshold
LAP2, Q96RT1; [2]
  pKd: below the threshold
SHANK1, Q9Y566; [2]
  pKd: below the threshold
MPDZ_5, O75970; [2]
  pKd: below the threshold
SCRIB_1, Q14160; [2]
  pKd: below the threshold

## NDPAWDETNL [ARHGEF7, Q14155;Q14155-1]
APBA2_1, Q99767; [1]
  pKd: below the threshold
DLG5_1, Q8TDM6; [1]
  pKd: below the threshold
MPDZ_10, O75970
  pKd: below the threshold
GRID2IP_1, A4D2P6; [1]
  pKd: below the threshold
MPDZ_12, O75970; [1]
  pKd: below the threshold
LNX1_1, Q8TBB1; [1]
  pKd: below the threshold
DLG1_3, Q12959; [1]
  pKd: below the threshold
GRASP, Q7Z6J2; [1]
  pKd: below the threshold
Inadl_9, Q8NI35; [1]
  pKd: below the threshold
GOPC, Q9HD26; [1]
  pKd: 4.13
RADIL, Q96JH8; [1]
  pKd: below the threshold
MAGI2_4, Q86UL8; [1]
  pKd: below the threshold
FRMPD2_2, Q68DX3; [1]
  pKd: below the threshold
MAGI3_2, Q5TCQ9; [1]
  pKd: below the threshold
AHNAK1, Q09666; [1]
  pKd: below the threshold
NHERF4_1, Q86UT5-2; [1]
  pKd: below the threshold
NHERF4_2, Q86UT5; [1]
  pKd: below the threshold
RAPGEF6, Q8TEU7; [1]
  pKd: below the threshold
IL16_1, Q14005; [1]
  pKd: below the threshold
APBA1_1, Q02410; [1]
  pKd: below the threshold
LAP2, Q96RT1; [1]
  pKd: 4.46
SHANK1, Q9Y566; [1]
  pKd: 4.79
MPDZ_5, O75970; [1]
  pKd: below the threshold
SCRIB_1, Q14160; [1]
  pKd: 5.5
